Data published in paper PMC8399745, “Nanostructured Lipid Carriers (NLCs) for Oral Peptide Drug Delivery: About the Impact of Surface Decoration” (Pharmaceutics, 2021).

Test: Log P octanol/water of INS and INS-SDS complexes
Format: physicochemical
Conditions: shake-flask octanol/water (1:1), 1 mg in 1 mL, 37 °C, 500 rpm, 12 h, centrifugation, INS quantified in each phase by HPLC (214 nm); means, n = 3
Method: Log Poctanol/water of INS and INS-SDS complexes was determined using a previously described method with minor modification. Briefly, 1 mg of each product was added to 1 mL of octanol/water (1:1) (Sigma-Aldrich Chemie GmbH, Vienna, Austria). The mixtures were incubated at 37 °C while stirring at 500 rpm for 12 h. Thereafter, samples were centrifuged at 13,400 rpm for 10 min. Aliquots of 100 μL were withdrawn from each phase (octanol and water) and analyzed via HPLC after dilution with 300 μL of methanol (Sigma-Aldrich Chemie GmbH, Vienna, Austria) containing 0.1% (v/v) TFA. Log P was calculated according to the following equation: Log P=Log(Concentration of INS in octanol phase/Concentration of INS in water phase)

Human recombinant insulin
log Poctanol/water: −1.8
